Changes are numbered by the printed parent chain. Names may count otherwise. “Also recorded” adds a separate entry of the source. Marks after values point to notes of the source that are not given here.

Results on three molecules are retold here after patent publication US10494415B2, “Insulin-like growth factor 2 (IGF2) binding agents” (Cancer Research Technology Limited, priority 2015, dated 2019).

Assay [1] deals with IGF2^1-67-induced hypoglycaemia. The assay is described as follows: IGF2-induced hypoglycaemia mouse model. It counts as in vivo. From the text: All animal experiments were approved by the animal use ethical committee of Oxford University and fully complied with UK Home Office guidelines (PPL 30/2695). Wild-type C57BL/6J and 129S2 mice were used throughout. Mice were anaesthetised using a rising concentration of isoflurane in oxygenated air and maintained using 2% isoflurane with 2 L min^−1 oxygen. Blood glucose measurements were taken using an Advantage diabetic glucose meter (Roche Diagnostics, Burgess Hill, UK). In order to test the direct inhibition of IGF2-induced hypoglycaemia by Fc-domain 11^AB5, blood glucose levels were allowed to normalise for 30 min prior to taking a baseline blood glucose reading, then either 1 mg kg^−1 IGF2 only (R&D systems), […], Fc-domain 11^RHH, or Fc-domain 11^I1572A ([…]) was injected. Blood glucose measurements were taken every 10 min for the following hour. For the Fc-domain 11^AB5 mouse preloading experiment, 11.7 mg kg^−1 Fc-domain 11^AB5 or PBS, as negative control, was injected immediately after induction of anaesthesia, 30 mins later a baseline blood glucose reading was taken and 1 mg kg^−1 IGF2 ([…]) was injected, readings were then taken every 10 min for the following hour. For the mouse IGF2 preloading experiment, 1 mg kg^−1 IGF2 was injected immediately after induction of anaesthesia, 30 min later a baseline blood glucose reading was taken and either 11.7 mg kg^−1 Fc-domain 11^AB5 ([…]) or PBS was injected, readings were then taken every 10 min for the following hour.

Assay [2] has as its target T1, IGF2^1-67 (Homo sapiens, UniProt P01344).
T1 construct: Recombinant mature (IGF2^1-67 [7.5 kDa]
Kind of assay: SPR of IGF forms on Fc-domain 11 proteins immobilised by antibody capture. The format is binding. The note with it: HBS-EP pH 7.4. Here is the method: (§1) SPR analysis of the interaction of recombinant IGF1 and IGF2 forms with Fc-domain 11 proteins immobilised by antibody capture (CM5 chip containing monoclonal mouse anti-human IgG antibody immobilised by amine coupling). Measurements were carried out at 25° C. in HBS-EP buffer (pH 7.4).
(§2) Final kinetic analysis of mutants by SPR was conducted using a Biacore T200 biosensor at 25° C. in either HBS-EP (10 mM HEPES pH 7.4, 150 mM NaCl, 3 mM EDTA, and 0.005% (v/v) surfactant P20) or MES-EP (20 mM MES pH 6.5, 150 mM NaCl, 3 mM EDTA, and 0.005% (v/v) surfactant P20) at a flow-rate of 40 μL min^−1. […] For the analysis of the Fc-domain 11^AB5 interaction, approximately 50 RU of a biotinylated IGF2:biotinylated ubiquitin mixture (1:8 proportion) was immobilized on the CM5-streptavidin chip. This interaction was also analysed by immobilizing the Fc-domain 11^AB5 and Fc-domain 11^AB5-RHH (or Fc-domain 11^I1572A as control) by Human Antibody Capture (monoclonal mouse anti-human IgG antibody immobilised on a CM5 chip by amine coupling, GE Healthcare) with and without human IgG1 Fc fragment (Bethyl Laboratories, UK) in the control flow cell. Increasing concentrations of IGF2^1-67, proIGF2^1-104, proIGF2^1-156 and IGF1 ranging from 0.125 to 32 nM were injected. T200 BiaEvaluation software (GE Healthcare) was used to fit the resulting curves according to a 1:1 binding model. Steady state affinities were determined using the kinetic data, taking the response average at 5 seconds before injection end and for 5 seconds average. Thermodynamic data was performed across the temperature range of 10° C. to 30° C., van't Hoff and Erying plots generated and ΔH, −TΔS and ΔG values determined as previously described.

Assay [3] has as its target T2, IGF2^1-104 (Homo sapiens, UniProt P01344).
T2 construct: pro-IGF2 (pro-IGF2^1-104 [11 kDa]
The description is as above. The note with it: HBS-EP pH 7.4. It counts as binding. As to the method:
as §1, §2

Assay [4] concerns the target T3, IGF2^1-156 (Homo sapiens, UniProt P01344).
T3 construct: pro-IGF2^1-156 [17 kDa]
The assay is described as above. It counts as binding. The note with it: for Kinetics koff: HBS-EP pH 7.4; for Kinetics kon: may be inaccurate (mixture of three isoforms). Here is the method: as §1, §2

Assay [5] deals with Huh7 cells. Kind of assay: Apoptosis in hepatocellular carcinoma cells. The format is cell-based, human.
Assay [6] concerns Hep3B cells. The assay is described as follows: Cell proliferation assay (EdU incorporation). The format is cell-based, human. The note with it: relative to OSI-06. As to the method: EdU incorporation was used to measure cell proliferation (Invitrogen, C10338). Briefly, cells were plated at a density of 2×10^5 cells/well in 6-well plates and cultured in serum free media. After 24 hr of serum starvation, PBS (black) and 1.5 μM Fc-domain 11^I1572 (grey) as negative controls, 0.5 and 1.5 μM Fc-domain 11^AB5 (orange), 1 μM OSI-906 (purple) and 0.1 and 0.5 μM doxycycline (green) as positive controls were added to the different wells and cells were further cultured. After 48 hr, 10 μM EdU was added for 3 hr and cells were then washed and trypsinised, followed by fixation in 4% PFA and permeabilisation in TBS/5% Triton. The Alexa 555 dye was then attached to the EdU molecules by click chemistry following the manufacturer's instructions and the % of EdU incorporation under different conditions was then analysed by flow cytometry.

Assay [7] concerns Hep 3B2.1-7 cells. Kind of assay: In vitro cell viability (CellTiter 96 AQueous). The format is cell-based, human. The settings on record: cell line not specified in the sentence (FIG. 10: Hep3B, Huh7). Here is the method: The human hepatocellular carcinoma cell lines Hep 3B2.1-7 and Huh-7D12 were obtained from the ATCC (HB-8065) and the ECACC (Catalogue number 1042712), respectively. Hep 3B2.1-7 was grown in EMEM (Lonza) supplemented with 10% (v/v) fetal bovine serum, 100 U mL-1 penicillin, 100 μg mL-1 streptomycin, and 2 mM Lglutamine Huh-7D12 was grown in DMEM (Sigma) supplemented with 10% fetal bovine serum, 100 U mL-1 penicillin, 100 μg mL-1 streptomycin, and 2 mM L-glutamine. Cells were plated in 96-well plates at a density of 1-2×10^4 cells/well in serum free medium. After 24 hr, Fc-domain 11^AB5 (orange), Fc-domain 11^I1572A as negative control (grey) or OSI-906 (purple) were added to each well to different final concentrations and the cells were incubated for further 48-72 hr. Cell viability was assayed at 48 and 72 hr after Fc-domain 11^AB5 treatment using the CellTiter 96® AQueous Non-Radioactive Cell Proliferation Assay (Promega). The half maximal inhibitory concentration (IC50) was calculated using graph prism.

Assay [8] deals with IGF2 (Homo sapiens, UniProt P01344). Kind of assay: SPR (Biacore T200) of recombinant IGF2R domain 11 mutants on immobilised biotinylated IGF2. The format is binding. The arrangement: purchased GroPep. The essentials:
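Biotinylated IGF2 (or IGF1) captured on streptavidin chip; domain 11 mutants (E. coli or P. pastoris, AB5 background) injected at 25 °C, 40 μL/min, in HBS-EP pH 7.4 or MES-EP pH 6.5. kon/koff from 1:1 fit; KD as mean of 2-5 repeats.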
On the technique in general: In SPR one partner is held on a chip, and binding of the other changes the refractive index at the surface.

Assay [9] concerns the target IGF1 (Homo sapiens, UniProt P05019). Kind of assay: SPR of domain 11 mutants on immobilised biotinylated IGF1 (specificity). The format is binding. From the text: Surface plasmon resonance (SPR) binding analysis of recombinant M6P/IGF2R domain 11 mutants interaction with IGF2. Kon indicates association (on) rate; koff, dissociation (off) rate; RU, response units. Binding to IGF2 assessed with BIAcore T200 using purified biotinylated IGF2 and IGF1 on a streptavidin biosensor chip. Recombinant proteins were expressed either in E. coli and/or P. pastoris. All the mutants in the FG and CD loops are on the domain 11^AB5 background for the AB loop unless otherwise stated. All experiments were carried out at 25° C. in HBS-EP buffer (pH 7.4), were repeated 2-5 times on two independent BIAcore chips. nd=not determined. Data for KD expressed as mean of each experiment, and means of kon and koff are shown.
Final kinetic analysis of mutants by SPR was conducted using a Biacore T200 biosensor at 25° C. in either HBS-EP (10 mM HEPES pH 7.4, 150 mM NaCl, 3 mM EDTA, and 0.005% (v/v) surfactant P20) or MES-EP (20 mM MES pH 6.5, 150 mM NaCl, 3 mM EDTA, and 0.005% (v/v) surfactant P20) at a flow-rate of 40 μL min^−1. […] This interaction was also analysed by immobilizing the Fc-domain 11^AB5 and Fc-domain 11^AB5-RHH (or Fc-domain 11^I1572A as control) by Human Antibody Capture (monoclonal mouse anti-human IgG antibody immobilised on a CM5 chip by amine coupling, GE Healthcare) with and without human IgG1 Fc fragment (Bethyl Laboratories, UK) in the control flow cell. […]

Where [10] appears, read: pre-loading, co-injection or post-loading.

T3 sequence (P01344 25-180): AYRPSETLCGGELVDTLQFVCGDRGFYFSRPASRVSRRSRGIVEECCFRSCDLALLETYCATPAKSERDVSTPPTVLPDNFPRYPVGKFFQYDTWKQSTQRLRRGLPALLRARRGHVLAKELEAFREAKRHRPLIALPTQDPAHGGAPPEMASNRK
T2 sequence (P01344 25-128): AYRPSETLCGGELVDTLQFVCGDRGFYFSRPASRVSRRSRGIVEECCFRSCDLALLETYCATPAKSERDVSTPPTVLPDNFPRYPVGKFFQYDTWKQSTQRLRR
IGF2, sequence (P01344 25-91): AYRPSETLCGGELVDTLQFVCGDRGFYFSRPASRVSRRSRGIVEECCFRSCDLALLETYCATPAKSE
T1 sequence (P01344 25-91): as above
IGF1, sequence (P05019 49-118): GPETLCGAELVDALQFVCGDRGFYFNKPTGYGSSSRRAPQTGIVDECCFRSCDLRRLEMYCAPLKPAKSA

B1: Fc-domain 11^AB5: human IgG1 Fc-fusion of domain 11^AB5 (protein)
chain: NEHDDCQVTNPSTGHLFDLSSLSGRAGFTAAYAKGWGVYMSICGENENCPPGVGACFGQTRISVGKANKRLRYVDQVLQLVYKDGSPCPSKSGLSYKSVISFVCRPEAGPTNRPMLISLDKQTCTLFFSWHTPLACEQAT
modifications: left off: a dimerising Fc or GST
notes: human IgG1 Fc-fusion of domain 11^AB5
Take B1: the “IGF2-induced hypoglycaemia (blood glucose)” value was “can reverse IGF2-induced hypoglycaemia” in [1] (administered 30 min after 1 mg kg^−1 IGF2^1-67); “significant abrogation of the hypoglycaemic effects” in assay [1] (setting [10]); “protects against IGF2-induced hypoglycaemia” in assay [1] (preloading 30 min before 1 mg kg^−1 IGF2^1-67); “abrogation; also recorded: prevents IGF2-induced hypoglycaemia” in assay [1] (premixed / co-injected with 1 mg kg^−1 IGF2^1-67, molar ratio 1:1). The Kinetics koff in assay [2] was 0.025 s⁻¹; in assay [3] it was 0.0069 s⁻¹; in assay [4], 0.0009 s⁻¹. Besides, the Kinetics kon is 6.47e+06 M⁻¹ s⁻¹ in assay [2], 1.287e+07 M⁻¹ s⁻¹ in assay [3] and 4.19* ×10^6 M^−1s^−1 in [4]. Moreover, the Apoptosis result in [5] is given as “promoted”. The Proliferation result in assay [6] is given as “inhibited”.

B2: Fc-domain 11^I1572A: low binder Fc-domain 11 fusion with I1572A, non-IGF2 binding control (protein)
chain: B1 chain with A33S, K34E, G35K, W36G, G37L, I62A
modifications: left off: a dimerising Fc or GST
As for B2, the “Inhibitory effect on cell lines” value in [7] was “no effect”. The “IGF2-induced hypoglycaemia (blood glucose)” value in assay [1] (setting [10]) is “not detected”. Also, in assay [3], the Kinetics koff worked out at 0.002 s⁻¹ and the Kinetics kon was found to be 520000 M⁻¹ s⁻¹. In assay [4], the Kinetics koff is 0.0008 s⁻¹ and the Kinetics kon is recorded as 0.29* ×10^6 M^−1s^−1.

B3: AB5: IGF2R domain 11 with five AB loop mutations S1543A, E1544K, K1545G, G1546W, L1547G (YAKGWG) (protein)
chain: MKSNEHDDCQVTNPSTGHLFDLSSLSGRAGFTAAYAKGWGVYMSICGENENCPPGVGACFGQTRISVGKANKRLRYVDQVLQLVYKDGSPCPSKSGLSYKSVISFVCRPEAGPTNRPMLISLDKQTCTLFFSWHTPLACEQATECSV
Regarding B3, the Kinetics koff came to 0.0208 s⁻¹ in [8] (Table 1, 25° C., HBS-EP pH 7.4); 0.0208 s⁻¹ in assay [8] (Table 3, 25° C., HBS-EP pH 7.4); 0.0180 s⁻¹ in [8] (Table 4, MES-EP pH 6.5). Further, the Kinetics kon in assay [8] (Table 1, 25° C., HBS-EP pH 7.4) was determined as 4.21e+06 M⁻¹ s⁻¹; in assay [8] (Table 3, 25° C., HBS-EP pH 7.4), 4.21e+06 M⁻¹ s⁻¹; in assay [8] (Table 4, MES-EP pH 6.5), 4.17e+06 M⁻¹ s⁻¹. For the same molecule, the “IGF2 specificity with respect to IGF1” value in assay [9] is “retained IGF2 specificity”.
